Literature values, collected in patent US9265777B2, “Antiparasitic agent for fish and method of controlling proliferation of fish parasites” (NIPPON SUISAN KAISHA, LTD., priority 2009, dated 2016).

Tested on: White spot disease
Conditions: 40 mg per 1 kg of fish body weight orally per day, 28-day experimental period

B1: lactoferrin: marketed as an additive for fisheries (protein, UniProt P24627 20-708, looked up)
Lactotransferrin: APRKNVRWCTISQPEWFKCRRWQWRMKKLGAPSITCVRRAFALECIRAIAEKKADAVTLDGGMVFEAGRDPYKLRPVAAEIYGTKESPQTHYYAVAVVKKGSNFQLDQLQGRKSCHTGLGRSAGWIIPMGILRPYLSWTESLEPLQGAVAKFFSASCVPCIDRQAYPNLCQLCKGEGENQCACSSREPYFGYSGAFKCLQDGAGDVAFVKETTVFENLPEKADRDQYELLCLNNSRAPVDAFKECHLAQVPSHAVVARSVDGKEDLIWKLLSKAQEKFGKNKSRSFQLFGSPPGQRDLLFKDSALGFLRIPSKVDSALYLGSRYLTTLKNLRETAEEVKARYTRVVWCAVGPEEQKKCQQWSQQSGQNVTCATASTTDDCIVLVLKGEADALNLDGGYIYTAGKCGLVPVLAENRKSSKHSSLDCVLRPTEGYLAVAVVKKANEGLTWNSLKDKKSCHTAVDRTAGWNIPMGLIVNQTGSCAFDEFFSQSCAPGADPKSRLCALCAGDDQGLDKCVPNSKEKYYGYTGAFRCLAEDVGDVAFVKNDTVWENTNGESTADWAKNLNREDFRLLCLDGTRKPVTEAQSCHLAVAPNHAVVSRSDRAAHVKQVLLHQQALFGKNGKNCPDKFCLFKSETKNLLFNDNTECLAKLGGRPTYEEYLGTEYVTAIANLKKCSTSPLLEACAFLTR
  infection during experimental period: no infection was observed
